Here are results for one molecule from patent US20130078263A1.

The assay deals with HLA-DR on human peripheral blood mononuclear cells (human). Kind of assay: cell-based or functional assay.

B1: IMMU-114 (antibody, from a related filing, IgG4, V domains shown)
VH: QVQLQQSGSELKKPGASVKVSCKASGFTFTNYGMNWVKQAPGQGLKWMGWINTYTREPTYADDFKGRFAFSLDTSVSTAYLQISSLKADDTAVYFCARDITAVVPTGFDYWGQGSLVTVSS
VL: DIQLTQSPSSLSASVGDRVTITCRASENIYSNLAWYRQKPGKAPKLLVFAASNLADGVPSRFSGSGSGTDYTFTISSLQPEDIATYYCQHFWTTPWAFGGGTKLQIKR
With B1, the frequency of CD3+ class II-DR+ cells, IMMU-114-treated MLR, representative result turned out to be 4%; the frequency of CD3+ class II-DR+ cells, IMMU-114-treated resting PBMCs, representative result was determined as 0.5%; the frequency of CD11c+ class II-DR+ cells, IMMU-114-treated MLR, representative result was 2.3%; the frequency of CD11c+ class II-DR+ cells, IMMU-114-treated resting PBMCs, representative result stood at 0.4%. This molecule also returned a frequency of CD14+ class II-DR+ cells, IMMU-114-treated MLR, representative result of 2.2%; a frequency of CD14+ class II-DR+ cells, IMMU-114-treated resting PBMCs, representative result of 0.5%; a reduction of live mDC1 in human PBMCs after 3 days with 5 µg/ml antibody (flow cytometry) of 59.2%; a reduction of live mDC2 in human PBMCs after 3 days with 5 µg/ml antibody (flow cytometry) of 85%. The reduction of pDCs in human PBMCs (flow cytometry) came to 50%.
